The term Kd denotes the concentration at which binding is half-saturated. Read a low Kd as a tighter complex.

For this assay, the target named is HD5. As to the kind of experiment: SPR.

B1: HLA-B27 heavy chain homodimer (B27_(2)), recombinant HLA-B*2705 homodimer complex (complex)
chain 1: GSHSMRYFHTSVSRPGRGEPRFITVGYVDDTLFVRFDSDAASPREEPRAPWIEQEGPEYWDRETQICKAKAQTDREDLRTLLRYYNQSEAGSHTLQNMYGCDVGPDGRLLRGYHQDAYDGKDYIALNEDLSSWTAADTAAQITQRKWEAARVAEQLRAYLEGECVEWLRRYLENGKETLQRADPPKTHVTHHPISDHEATLRCWALGFYPAEITLTWQRDGEDQTQDTELVETRPAGDRTFQKWAAVVVPSGEEQRYTCHVQHEGLPKPLTLRWEPSSQSTVPIV
chain 2: SRYWAIRTR
modifications: biotinylated (site not stated)
As to B1, the Kd turned out to be 0.32 nM.

Values taken from PMC4488392 (2015).
